# Measured values taken from the supplement of paper PMC10567573.
# B1: TRAF3IP2 (parent)
# chain: FMEKRNQWLVSQLSAASPDTGHDS
# Variants of: B1
# Assay: protein stability index of a GFP-peptide fusion (GPS, HEK-293T) (PSI 1-6); higher = more stable
# Details: c terminus: a fixed tail appended
# 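Further: lentivirally expressed fusions sorted by FACS into six bins by GFP to DsRed ratio, PSI derived from sequencing read proportions per bin multiplied by bin number.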
row,Variant,protein stability index
1,FMEKRNQWLVSQVSAASPDTGHDS [L13V],2.61
2,FMEKRNQWLVSQMSAASPDTGHDS [L13M],2.48
3,FMEKRNQWLVSQLSAASPDNGHDS [T20N],2.1
4,FMEKRNQWLVSQLSAASPDWGHDS [T20W],1.02
5,FMEKRNQWLVSQLSAASPDDGHDS [T20D],2.94
6,FMEKRNQWLVSQLSAASPDPGHDS [T20P],1.99
7,FMSKRNQWLVSQLSAASPDTGHDS [E3S],1.77
8,FMIKRNQWLVSQLSAASPDTGHDS [E3I],2.32
9,FMWKRNQWLVSQLSAASPDTGHDS [E3W],1.81
10,FMEKNNQWLVSQLSAASPDTGHDS [R5N],1.98
11,FMEKWNQWLVSQLSAASPDTGHDS [R5W],3.1
12,FMEKHNQWLVSQLSAASPDTGHDS [R5H],2.62
13,FMEYRNQWLVSQLSAASPDTGHDS [K4Y],2.17
14,FMETRNQWLVSQLSAASPDTGHDS [K4T],2.52
15,FMEARNQWLVSQLSAASPDTGHDS [K4A],1.71
16,FMEHRNQWLVSQLSAASPDTGHDS [K4H],2.16
17,FMEKRNQWLVSQLSAASPDTGQDS [H22Q],2.75
18,FMEKRNQWLVSQLSAASPDTGFDS [H22F],2.4
19,FMEKRNQWLVSQLSAASPDTGKDS [H22K],2.39
20,FMEKRNQWLVSQLSAASPDTGWDS [H22W],2.05
21,FMEKRNQWLVSQLSAASPDTGGDS [H22G],2.01
22,FMEKRNQWLVSQLTAASPDTGHDS [S14T],2.77
23,FMEKRNQWLVSQLWAASPDTGHDS [S14W],1.89
24,FMEKRNNWLVSQLSAASPDTGHDS [Q7N],2.65

row,Variant,protein stability index
1,FMEKRNAWLVSQLSAASPDTGHDS [Q7A],1.02
2,FMEKRNCWLVSQLSAASPDTGHDS [Q7C],1.87
3,FMEKRNPWLVSQLSAASPDTGHDS [Q7P],1.58
4,FWEKRNQWLVSQLSAASPDTGHDS [M2W],3.41
5,FTEKRNQWLVSQLSAASPDTGHDS [M2T],2.55
6,FKEKRNQWLVSQLSAASPDTGHDS [M2K],4.28
7,FHEKRNQWLVSQLSAASPDTGHDS [M2H],1.58
8,FLEKRNQWLVSQLSAASPDTGHDS [M2L],2.46
9,FMEKRNQWLHSQLSAASPDTGHDS [V10H],3.38
10,FMEKRNQWLASQLSAASPDTGHDS [V10A],3.61
11,FMEKRNQWLLSQLSAASPDTGHDS [V10L],2.29
12,FMEKRNQWLCSQLSAASPDTGHDS [V10C],1.99
13,FMEKRNQWLDSQLSAASPDTGHDS [V10D],4.18
14,FMEKRNQWLTSQLSAASPDTGHDS [V10T],3.21
15,FMEKRNQWLNSQLSAASPDTGHDS [V10N],3.46
16,FMEKRNQWLVAQLSAASPDTGHDS [S11A],1.94
17,FMEKRNQWLVLQLSAASPDTGHDS [S11L],1.46
18,FMEKRNQWLVWQLSAASPDTGHDS [S11W],3.25
19,FMEKRNQWLVNQLSAASPDTGHDS [S11N],3.18
20,FMEKRNQWLVSQLSAASPKTGHDS [D19K],2.28
21,FMEKRNQWLVSQLSAASPATGHDS [D19A],3.69
22,FMEKRNQWLVSQLSAASPRTGHDS [D19R],2.9
23,FMEKRNQWLVSQLSAASPCTGHDS [D19C],2.45
24,FMEKRNQWLVSQLSAASPPTGHDS [D19P],2.33

row,Variant,protein stability index
1,FMEKRNQKLVSQLSAASPDTGHDS [W8K],4.57
2,FMEKRNQHLVSQLSAASPDTGHDS [W8H],4.43
3,FMEKRNQRLVSQLSAASPDTGHDS [W8R],4.68
4,FMEKRNQDLVSQLSAASPDTGHDS [W8D],5.06
5,FMEKRNQVLVSQLSAASPDTGHDS [W8V],4.79
6,FMEKRNQCLVSQLSAASPDTGHDS [W8C],4.71
7,FMEKRNQWLVSLLSAASPDTGHDS [Q12L],1.65
8,FMEKRNQWLVSALSAASPDTGHDS [Q12A],2.04
9,FMEKRNQWLVSCLSAASPDTGHDS [Q12C],1.85
10,FMEKRNQWLVSSLSAASPDTGHDS [Q12S],1.77
11,FMEKRNQWLVSQLSAESPDTGHDS [A16E],2.62
12,FMEKRNQWLVSQLSARSPDTGHDS [A16R],1.54
13,FMEKRNQWTVSQLSAASPDTGHDS [L9T],2.44
14,FMEKRNQWQVSQLSAASPDTGHDS [L9Q],3.03
15,FMEKRNQWFVSQLSAASPDTGHDS [L9F],2.73
16,FMEKRNQWGVSQLSAASPDTGHDS [L9G],3.34
17,FMEKRNQWHVSQLSAASPDTGHDS [L9H],3.82
18,FMEKRNQWLVSQLSAAQPDTGHDS [S17Q],2.63
19,FMEKRNQWLVSQLSAAWPDTGHDS [S17W],1.57
20,FMEKRNQWLVSQLSAAPPDTGHDS [S17P],2.66
21,FMEKRNQWLVSQLSAAKPDTGHDS [S17K],2.41
22,FMEKRNQWLVSQLSAALPDTGHDS [S17L],2.54
23,FMEKRNQWLVSQLSAAVPDTGHDS [S17V],1.88
24,FMEKRNQWLVSQLSAASPDTGHDT [S24T],2.41

row,Variant,protein stability index
1,FMEKRNQWLVSQLSAASPDTGHDN [S24N],2.68
2,FMEKRNQWLVSQLSAASPDTGHDP [S24P],2.68
3,FMEKRNQWLVSQLSAASPDTRHDS [G21R],2.62
4,FMEKRNQWLVSQLSAASPDTEHDS [G21E],3.22
5,FMEKRNQWLVSQLSAASPDTKHDS [G21K],2.44
6,FMEKRNQWLVSQLSRASPDTGHDS [A15R],3.45
7,FMEKRNQWLVSQLSCASPDTGHDS [A15C],2.38
8,FMEKRNQWLVSQLSFASPDTGHDS [A15F],1.83
9,FMEKRNQWLVSQLSLASPDTGHDS [A15L],2.3
10,FMEKRNQWLVSQLSAASMDTGHDS [P18M],2.22
11,FMEKRNQWLVSQLSAASSDTGHDS [P18S],1.49
12,FMEKRNQWLVSQLSAASWDTGHDS [P18W],1.67
13,FMEKRNQWLVSQLSAASHDTGHDS [P18H],2.08
14,FMEKRNQWLVSQLSAASNDTGHDS [P18N],2.5
15,PMEKRNQWLVSQLSAASPDTGHDS [F1P],3.95
16,YMEKRNQWLVSQLSAASPDTGHDS [F1Y],2.84
17,FMEKRNQWLVSQLSAASPDTGHFS [D23F],2.22
18,FMEKRNQWLVSQLSAASPDTGHCS [D23C],1.73
19,FMEKRVQWLVSQLSAASPDTGHDS [N6V],2.02
20,FMEKRQQWLVSQLSAASPDTGHDS [N6Q],1.91
21,FMEKRAQWLVSQLSAASPDTGHDS [N6A],2.24
22,FMEKRMQWLVSQLSAASPDTGHDS [N6M],2.06
